Measurements as given in PMC6174002.

T1: RpoN (sigma54) (Leptospira biflexa strain Patoc 1 …, UniProt B0SR56 1-473)
T1 sequence: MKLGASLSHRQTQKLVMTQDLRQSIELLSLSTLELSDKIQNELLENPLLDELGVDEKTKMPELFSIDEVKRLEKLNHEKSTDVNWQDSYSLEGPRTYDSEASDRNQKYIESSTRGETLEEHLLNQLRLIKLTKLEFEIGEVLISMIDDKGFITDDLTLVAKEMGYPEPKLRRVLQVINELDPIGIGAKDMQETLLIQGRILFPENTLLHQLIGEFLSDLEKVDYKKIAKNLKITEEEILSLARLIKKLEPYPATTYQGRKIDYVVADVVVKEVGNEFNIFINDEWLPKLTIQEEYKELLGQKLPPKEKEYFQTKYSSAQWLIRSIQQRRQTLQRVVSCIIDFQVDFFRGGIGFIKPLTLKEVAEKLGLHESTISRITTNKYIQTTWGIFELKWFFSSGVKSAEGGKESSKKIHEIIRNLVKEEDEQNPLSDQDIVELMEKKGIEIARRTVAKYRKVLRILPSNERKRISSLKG


Columns and labels:
RpoN (sigma54) [1] = molecular target: T1, RpoN (sigma54); assay: EMSA
RpoN (sigma54) [2] = molecular target: T1, RpoN (sigma54); assay: competition

Binder	binding result (RpoN (sigma54) [1])	binding result (RpoN (sigma54) [2])
rcfA promoter -24/-12 probe (dsDNA) DNA 1: TAAGCCCAATATGCTTTTGGCACGATAGTTGCATCTATTCTACTG DNA 2: TTCAGTAGAATAGATGCAACTATCGTGCCAAAAGCATATTGGGCTT	binds	
rcfA promoter cold competitor (dsDNA) DNA 1: TAAGCCCAATATGCTTTTGGCACGATAGTTGCATCTATTCTACTG DNA 2: TTCAGTAGAATAGATGCAACTATCGTGCCAAAAGCATATTGGGCTT		binds
